This passage reports Ho/Con_2b, He/Con_2aH and He/Con_2b results from patent US20150344570A1 (published 2015).

Assay [1] concerns the target T1, human FcγRIIb extracellular domain with C-terminal His tag (human, UniProt P31994 43-217).
T1 construct: extracellular domain; also called FcgRIIb; 2b; not shown: His tag attached to the C terminus
T1 sequence (looked up): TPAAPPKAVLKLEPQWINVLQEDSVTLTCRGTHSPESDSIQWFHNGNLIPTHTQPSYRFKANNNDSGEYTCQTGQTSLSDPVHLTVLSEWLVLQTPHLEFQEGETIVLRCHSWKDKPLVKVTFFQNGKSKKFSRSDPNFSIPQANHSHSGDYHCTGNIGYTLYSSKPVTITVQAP
Description: SPR (Biacore T100), antibody captured on antigen peptide chip, FcγRIIb as analyte; relative binding. As for the experimental part:
(§1) Analysis of interaction between objective antibody and the FcγR was carried out using Biacore T100 (GE Healthcare). HBS-EP+ (GE Healthcare) was used as the running buffer, and the measurement temperature was set to 25° C. Chips produced by immobilizing the antigen peptide by the amine coupling method to a Series S Sencor Chip CM5 (GE Healthcare), or alternatively, chips produced by allowing preliminarily biotinylated antigen peptides to interact with and immobilize onto a Series S Sensor Chip SA (certified) (GE Healthcare) were used. Antibodies of interest were captured onto an antigen peptide-immobilized chip, and allowed to interact to each FcγR diluted with running buffer. To regenerate and repeatedly use the chip, the antibodies captured on the chip were washed off by reacting 10 mM glycine-HCl, pH 1.5.
(In general: Surface plasmon resonance follows binding to a sensor surface in real time, without labels.)

Assay [2] addresses T2, FcγRIIa H (human, UniProt P12318 34-217).
T2 construct: extracellular domain; also called FcγRIIa type H; 2aH; not shown: His tag at the C terminus
T2 sequence (looked up): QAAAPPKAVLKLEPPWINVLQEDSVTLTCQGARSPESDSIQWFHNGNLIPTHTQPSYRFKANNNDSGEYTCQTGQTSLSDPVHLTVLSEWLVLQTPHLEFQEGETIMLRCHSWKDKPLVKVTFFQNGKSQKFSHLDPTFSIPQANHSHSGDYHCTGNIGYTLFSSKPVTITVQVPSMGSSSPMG
Description: SPR (Biacore), antibody captured, FcγR as analyte; binding relative to GpH7-A5/GpH7-B3/GpL16-k0 = 100. The procedure:
(§2) The heterodimerized antibodies He Abs in which one of the H chains was introduced with an alteration were assayed for their binding activities to each activating FcγR and inhibitory FcγR according to the method described in Example 4. […] The activating FcγRs in FIGS. 26, 27, 28, and 29 are FcγRIa, FcγRIIa (R), FcγRIIa (H), and FcγRIIIa, respectively.
as §1

Assay [3] has as its target T3, FcγRIIb (human, UniProt P31994 43-217).
T3 construct: extracellular domain; also called 2b; not shown: His tag at the C terminus
T3 sequence (looked up): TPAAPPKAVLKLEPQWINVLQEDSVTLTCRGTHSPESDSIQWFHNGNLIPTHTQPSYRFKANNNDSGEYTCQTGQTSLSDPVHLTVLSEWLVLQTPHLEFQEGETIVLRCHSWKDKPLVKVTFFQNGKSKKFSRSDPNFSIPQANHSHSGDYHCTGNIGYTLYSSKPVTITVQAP
Described as above. The procedure: as §2, §1

B1: GpH7-B3 variant P238_08L/GpL16-k0 (Ho Ab) (antibody, human IgG1, kappa)
heavy: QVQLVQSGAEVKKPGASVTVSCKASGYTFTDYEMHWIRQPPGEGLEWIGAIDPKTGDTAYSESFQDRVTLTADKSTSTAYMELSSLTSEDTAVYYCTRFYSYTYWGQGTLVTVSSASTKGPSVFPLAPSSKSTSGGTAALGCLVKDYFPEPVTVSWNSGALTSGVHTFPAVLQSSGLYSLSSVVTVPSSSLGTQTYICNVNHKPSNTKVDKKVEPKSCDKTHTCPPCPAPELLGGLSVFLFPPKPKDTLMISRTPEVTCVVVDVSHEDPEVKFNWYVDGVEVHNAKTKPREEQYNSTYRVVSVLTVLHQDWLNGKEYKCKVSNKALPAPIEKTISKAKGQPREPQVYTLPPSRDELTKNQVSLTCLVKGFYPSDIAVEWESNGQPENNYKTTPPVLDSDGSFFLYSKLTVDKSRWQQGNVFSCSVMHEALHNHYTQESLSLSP
light: DIVMTQSPLSLPVTPGEPASISCQASESLVHSNRNTYLHWYLQKPGQSPQLLIYKVSNRFSGVPDRFSGSGSGTDFTLKISRVEAEDVGVYYCSQNTHVPPTFGQGTKVEIERTVAAPSVFIFPPSDEQLKSGTASVVCLLNNFYPREAKVQWKVDNALQSGNSQESVTEQDSKDSTYSLSSTLTLSKADYEKHKVYACEVTHQGLSSPVTKSFNRGEC
notes: Anti-glypican-3 IgG1; mutation in both H chains; also called P238L homodimerized antibody
For B1, in assay [1], the Ho/Con_2b is 235 % of control GpH7-B3/GpL16-k0 (=100).

B2: GpH7-B3 variant L328_15Y/GpL16-k0 (Ho Ab) (antibody, human IgG1, kappa)
heavy: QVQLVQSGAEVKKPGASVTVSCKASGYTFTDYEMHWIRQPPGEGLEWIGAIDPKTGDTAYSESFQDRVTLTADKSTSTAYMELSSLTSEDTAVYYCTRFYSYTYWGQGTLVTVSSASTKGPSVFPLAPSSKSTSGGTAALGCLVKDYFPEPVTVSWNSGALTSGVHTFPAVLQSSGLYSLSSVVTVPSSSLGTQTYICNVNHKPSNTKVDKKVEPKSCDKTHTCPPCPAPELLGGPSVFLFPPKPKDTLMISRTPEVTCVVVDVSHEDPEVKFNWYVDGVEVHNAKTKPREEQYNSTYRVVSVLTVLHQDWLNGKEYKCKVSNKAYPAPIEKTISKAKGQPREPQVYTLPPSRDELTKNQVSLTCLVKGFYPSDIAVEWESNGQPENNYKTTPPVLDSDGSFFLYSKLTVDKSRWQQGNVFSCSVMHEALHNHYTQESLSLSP
light: DIVMTQSPLSLPVTPGEPASISCQASESLVHSNRNTYLHWYLQKPGQSPQLLIYKVSNRFSGVPDRFSGSGSGTDFTLKISRVEAEDVGVYYCSQNTHVPPTFGQGTKVEIERTVAAPSVFIFPPSDEQLKSGTASVVCLLNNFYPREAKVQWKVDNALQSGNSQESVTEQDSKDSTYSLSSTLTLSKADYEKHKVYACEVTHQGLSSPVTKSFNRGEC
notes: Anti-glypican-3 IgG1; mutation in both H chains; also called L328Y homodimerized antibody
For B2, the Ho/Con_2b in assay [1] is 272 % of control GpH7-B3/GpL16-k0 (=100).

B3: GpH7-B3 variant P271_01G/GpL16-k0 (Ho Ab) (antibody, human IgG1, kappa)
heavy: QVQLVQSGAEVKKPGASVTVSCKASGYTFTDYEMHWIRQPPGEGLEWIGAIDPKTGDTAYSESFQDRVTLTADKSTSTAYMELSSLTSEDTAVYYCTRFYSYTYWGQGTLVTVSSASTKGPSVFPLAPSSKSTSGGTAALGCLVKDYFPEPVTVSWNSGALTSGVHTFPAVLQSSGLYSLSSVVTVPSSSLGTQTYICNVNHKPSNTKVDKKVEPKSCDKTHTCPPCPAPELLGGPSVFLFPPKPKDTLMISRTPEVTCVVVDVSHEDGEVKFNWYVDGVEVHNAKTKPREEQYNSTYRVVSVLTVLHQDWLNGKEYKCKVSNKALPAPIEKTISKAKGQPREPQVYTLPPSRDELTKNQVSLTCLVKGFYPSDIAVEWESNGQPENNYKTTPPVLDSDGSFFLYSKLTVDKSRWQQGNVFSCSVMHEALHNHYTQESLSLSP
light: DIVMTQSPLSLPVTPGEPASISCQASESLVHSNRNTYLHWYLQKPGQSPQLLIYKVSNRFSGVPDRFSGSGSGTDFTLKISRVEAEDVGVYYCSQNTHVPPTFGQGTKVEIERTVAAPSVFIFPPSDEQLKSGTASVVCLLNNFYPREAKVQWKVDNALQSGNSQESVTEQDSKDSTYSLSSTLTLSKADYEKHKVYACEVTHQGLSSPVTKSFNRGEC
notes: Anti-glypican-3 IgG1; mutation in both H chains; also called P271G homodimerized antibody
On to B3, for which the Ho/Con_2b in assay [1] is 229 % of control GpH7-B3/GpL16-k0 (=100).

B4: GpH7-B3 variant L328_04F/GpL16-k0 (Ho Ab) (antibody, human IgG1, kappa)
heavy: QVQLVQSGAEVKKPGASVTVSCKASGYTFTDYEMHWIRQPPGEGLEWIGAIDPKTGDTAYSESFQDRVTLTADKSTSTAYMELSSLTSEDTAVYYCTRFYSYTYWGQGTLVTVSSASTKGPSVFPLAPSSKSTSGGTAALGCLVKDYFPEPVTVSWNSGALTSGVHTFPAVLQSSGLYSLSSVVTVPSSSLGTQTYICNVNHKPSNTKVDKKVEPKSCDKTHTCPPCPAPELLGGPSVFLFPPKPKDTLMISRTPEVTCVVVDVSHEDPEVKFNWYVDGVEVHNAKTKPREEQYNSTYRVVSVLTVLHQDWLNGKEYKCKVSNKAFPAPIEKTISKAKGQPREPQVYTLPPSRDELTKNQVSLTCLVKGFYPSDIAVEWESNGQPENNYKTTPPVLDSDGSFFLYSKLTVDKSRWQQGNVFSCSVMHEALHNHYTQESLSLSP
light: DIVMTQSPLSLPVTPGEPASISCQASESLVHSNRNTYLHWYLQKPGQSPQLLIYKVSNRFSGVPDRFSGSGSGTDFTLKISRVEAEDVGVYYCSQNTHVPPTFGQGTKVEIERTVAAPSVFIFPPSDEQLKSGTASVVCLLNNFYPREAKVQWKVDNALQSGNSQESVTEQDSKDSTYSLSSTLTLSKADYEKHKVYACEVTHQGLSSPVTKSFNRGEC
notes: Anti-glypican-3 IgG1; mutation in both H chains; also called L328F homodimerized antibody
In the case of B4, in assay [1], the Ho/Con_2b is 241 % of control GpH7-B3/GpL16-k0 (=100).

B5: GpH7-A5/GpH7-B3 variant Y300_07I/GpL16-k0 (antibody, human IgG1, kappa)
heavy 1: not shown
heavy 2: not shown
light: DIVMTQSPLSLPVTPGEPASISCQASESLVHSNRNTYLHWYLQKPGQSPQLLIYKVSNRFSGVPDRFSGSGSGTDFTLKISRVEAEDVGVYYCSQNTHVPPTFGQGTKVEIERTVAAPSVFIFPPSDEQLKSGTASVVCLLNNFYPREAKVQWKVDNALQSGNSQESVTEQDSKDSTYSLSSTLTLSKADYEKHKVYACEVTHQGLSSPVTKSFNRGEC
notes: Heterodimerized IgG1; mutation in the GpH7-B3 chain only; also called He Ab
As for B5, the He/Con_2aH in assay [2] is 108 % of control. Also, the He/Con_2b in assay [3] is 74.5 % of control.

B6: GpH7-B3 variant P331_04F/GpL16-k0 (Ho Ab) (antibody, human IgG1, kappa)
heavy: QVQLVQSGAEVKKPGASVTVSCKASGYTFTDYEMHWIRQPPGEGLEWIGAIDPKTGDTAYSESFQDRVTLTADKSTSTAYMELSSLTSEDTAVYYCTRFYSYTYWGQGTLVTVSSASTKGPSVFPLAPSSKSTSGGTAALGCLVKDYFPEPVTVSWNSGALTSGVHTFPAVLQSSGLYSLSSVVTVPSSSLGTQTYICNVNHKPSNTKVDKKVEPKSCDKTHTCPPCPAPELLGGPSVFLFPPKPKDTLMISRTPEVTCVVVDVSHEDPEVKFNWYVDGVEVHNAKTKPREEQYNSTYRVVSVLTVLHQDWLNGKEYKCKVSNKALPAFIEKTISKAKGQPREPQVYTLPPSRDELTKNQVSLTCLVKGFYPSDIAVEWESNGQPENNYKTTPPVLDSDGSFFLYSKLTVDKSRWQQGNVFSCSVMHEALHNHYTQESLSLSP
light: DIVMTQSPLSLPVTPGEPASISCQASESLVHSNRNTYLHWYLQKPGQSPQLLIYKVSNRFSGVPDRFSGSGSGTDFTLKISRVEAEDVGVYYCSQNTHVPPTFGQGTKVEIERTVAAPSVFIFPPSDEQLKSGTASVVCLLNNFYPREAKVQWKVDNALQSGNSQESVTEQDSKDSTYSLSSTLTLSKADYEKHKVYACEVTHQGLSSPVTKSFNRGEC
notes: Anti-glypican-3 IgG1; mutation in both H chains; also called P331F homodimerized antibody
For B6, the Ho/Con_2b in assay [1] is 113 % of control GpH7-B3/GpL16-k0 (=100).

B7: GpH7-B3 variant L328_19Q/GpL16-k0 (Ho Ab) (antibody, human IgG1, kappa)
heavy: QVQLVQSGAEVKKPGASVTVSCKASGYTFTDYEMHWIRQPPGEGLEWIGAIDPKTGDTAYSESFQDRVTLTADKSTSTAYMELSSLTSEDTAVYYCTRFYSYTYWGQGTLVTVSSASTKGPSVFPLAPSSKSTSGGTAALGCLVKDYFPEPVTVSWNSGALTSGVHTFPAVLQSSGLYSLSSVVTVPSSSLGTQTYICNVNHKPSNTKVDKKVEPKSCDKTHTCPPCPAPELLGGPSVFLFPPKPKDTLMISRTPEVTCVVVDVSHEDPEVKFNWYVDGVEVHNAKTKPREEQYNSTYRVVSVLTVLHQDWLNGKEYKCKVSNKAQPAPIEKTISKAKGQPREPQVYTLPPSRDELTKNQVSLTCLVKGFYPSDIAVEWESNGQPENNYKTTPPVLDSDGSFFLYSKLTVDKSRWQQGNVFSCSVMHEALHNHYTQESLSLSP
light: DIVMTQSPLSLPVTPGEPASISCQASESLVHSNRNTYLHWYLQKPGQSPQLLIYKVSNRFSGVPDRFSGSGSGTDFTLKISRVEAEDVGVYYCSQNTHVPPTFGQGTKVEIERTVAAPSVFIFPPSDEQLKSGTASVVCLLNNFYPREAKVQWKVDNALQSGNSQESVTEQDSKDSTYSLSSTLTLSKADYEKHKVYACEVTHQGLSSPVTKSFNRGEC
notes: Anti-glypican-3 IgG1; mutation in both H chains; also called L328Q homodimerized antibody
Take B7: the Ho/Con_2b in assay [1] is 111 % of control GpH7-B3/GpL16-k0 (=100).

B8: GpH7-A5/GpH7-B3 variant Y300_08L/GpL16-k0 (antibody, human IgG1, kappa)
heavy 1: not shown
heavy 2: not shown
light: DIVMTQSPLSLPVTPGEPASISCQASESLVHSNRNTYLHWYLQKPGQSPQLLIYKVSNRFSGVPDRFSGSGSGTDFTLKISRVEAEDVGVYYCSQNTHVPPTFGQGTKVEIERTVAAPSVFIFPPSDEQLKSGTASVVCLLNNFYPREAKVQWKVDNALQSGNSQESVTEQDSKDSTYSLSSTLTLSKADYEKHKVYACEVTHQGLSSPVTKSFNRGEC
notes: as for B5
Regarding B8, the He/Con_2aH in assay [2] is 108 % of control. Moreover, the He/Con_2b in assay [3] is 73.6 % of control.

B9: GpH7-B3 variant L328_07I/GpL16-k0 (Ho Ab) (antibody, human IgG1, kappa)
heavy: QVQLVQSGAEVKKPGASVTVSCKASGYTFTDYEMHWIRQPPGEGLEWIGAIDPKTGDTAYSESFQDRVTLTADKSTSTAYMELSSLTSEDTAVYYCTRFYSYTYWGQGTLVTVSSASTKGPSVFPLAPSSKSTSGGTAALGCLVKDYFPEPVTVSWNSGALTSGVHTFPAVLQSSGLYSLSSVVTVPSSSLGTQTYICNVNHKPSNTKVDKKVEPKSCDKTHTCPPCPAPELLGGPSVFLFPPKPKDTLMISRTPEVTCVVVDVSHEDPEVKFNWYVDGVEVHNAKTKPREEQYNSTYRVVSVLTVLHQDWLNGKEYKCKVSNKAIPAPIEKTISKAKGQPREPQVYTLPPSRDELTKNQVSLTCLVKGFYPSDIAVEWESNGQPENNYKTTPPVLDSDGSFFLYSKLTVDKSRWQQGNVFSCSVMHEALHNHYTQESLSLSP
light: DIVMTQSPLSLPVTPGEPASISCQASESLVHSNRNTYLHWYLQKPGQSPQLLIYKVSNRFSGVPDRFSGSGSGTDFTLKISRVEAEDVGVYYCSQNTHVPPTFGQGTKVEIERTVAAPSVFIFPPSDEQLKSGTASVVCLLNNFYPREAKVQWKVDNALQSGNSQESVTEQDSKDSTYSLSSTLTLSKADYEKHKVYACEVTHQGLSSPVTKSFNRGEC
notes: Anti-glypican-3 IgG1; mutation in both H chains; also called L328I homodimerized antibody
Consider B9, for which, in assay [1], the Ho/Con_2b was 188 % of control GpH7-B3/GpL16-k0 (=100).
